{
  "source": "patent US20120065365A1",
  "about": "“Stable Radiopharmaceutical Compositions and Methods for Their Preparation” (BRACCO IMAGING S.P.A., priority 2003, published 2012)",
  "key": {"[1]": {"type": "physicochemical", "conditions": "50 mCi/2 mL in Radiolysis Protecting Solution containing L-methionine, room temperature", "protocol": "The injection volume was 20 μL.\nA Radiolysis Protecting Solution was prepared to contain 10 mg/mL gentisic acid; 50 mg/mL ascorbic acid sodium salt; 2 mg/mL HSA; 2.98 mg/mL L-methionine, 0.9% (v:v) benzyl alcohol and 1 mg/mL of Na2EDTA.2H2O in 0.05 M, pH 5.3 citrate buffer. […] The mixture was incubated at 100° C. for 5 min, and then cooled to room temperature with a water bath. A 1-mL aliquot of the Radiolysis Protecting Solution was immediately added. The reaction vial was stored in an autosampler chamber and the stability was analyzed by Reversed Phase HPLC over time, using HPLC Methods 3 and 4. The results obtained for ^177Lu-B are shown in the chromatograms in FIG. 9."}, "[2]": {"type": "physicochemical", "conditions": "Radiolysis Protecting Solution containing L-selenomethionine, room temperature", "protocol": "^177Lu-A and ^177Lu-B were prepared at a 50 mCi level as described in EXAMPLE 4. Immediately after cooling the reaction mixtures to room temperature, 1 mL of a Radiolysis Protecting solution was added, containing 10 mg/mL gentisic acid; 50 mg/mL ascorbic acid sodium salt; 2 mg/mL HSA; 3.92 mg/mL L-selenomethionine, 0.9% (v:v) benzyl alcohol and 1 mg/mL of Na2EDTA.2H2O in 0.05 M, pH 5.3 citrate buffer. The reaction vials were stored in the autosampler chamber and the stability was analysed by RP-HPLC over time using HPLC Methods 3 [^177Lu-A] or 4 [^177Lu-B]."}, "[3]": {"type": "physicochemical", "conditions": "50 mCi/2 mL, Radiolysis Protecting Solution, room temperature", "protocol": "^177Lu-A and ^177Lu-B were prepared at a 50 mCi level as described in EXAMPLE 4. Immediately after cooling the reaction mixtures to room temperature, 1 mL of a Radiolysis Protecting Solution was added, containing 10 mg/mL gentisic Acid; 50 mg/mL ascorbic acid sodium salt, 2 mg/mL HSA, (2 mg/mL or 3.52 mg/mL) L-cysteine, 0.9% (v/v) benzyl alcohol and 1 mg/mL of Na2EDTA.2H2O in 0.05 M, pH 5.3 citrate buffer. The reaction vials were stored in the autosampler chamber and the stability was analysed by RP-HPLC over time using HPLC Methods 3 [^177Lu-A] or 4 [^177Lu-B]. Similar results were obtained for ^177Lu-B."}, "[4]": {"type": "physicochemical", "conditions": "50 mCi/2 mL, Radiolysis Protecting Solution with 0 mg/mL L-cysteine, room temperature", "protocol": "^177Lu-A was prepared at a 50 mCi level as described in EXAMPLE 4. Immediately after cooling the reaction mixture to room temperature, 1 mL of a Radiolysis Protecting Solution was added, that contained 10 mg/mL gentisic acid; 50 mg/mL ascorbic acid sodium salt; 2 mg/mL HSA; 0.9% (v:v) benzyl alcohol and 1 mg/mL of Na2EDTA.2H2O in 0.05 M, pH 3.3 citrate buffer. The reaction vial was stored in an autosampler chamber and the stability was analysed by RP-HPLC over time."}, "[5]": {"test": "Stability in Radiolysis Protecting Solution containing methionine (FIG. 4 and similar study)", "type": "physicochemical", "conditions": "methionine in the radiolysis protecting solution increased to 3 mg/mL", "protocol": "Formulations stabilized by such cocktails maintained excellent radiochemical purity (RCP) values (>95% RCP) for as long as 5 days at room temperature. This stabilizing cocktail is added immediately after formation of the radioactive complex, so would be the second vial of a two-vial kit."}, "[6]": {"type": "physicochemical", "conditions": "55 mCi/2 ml, 1 mL radiolysis protecting solution (L-cysteine) added after complex formation, room temperature"}},
  "note": "Like-named read-outs stand apart in the source and are kept apart here.",
  "data": [
    {"substance": "^177Lu-A: the ^177Lu complex of DOTA-Gly-ACA-Gln-Trp-Ala-Val-Gly-His-Leu-Met-NH2", "values": [
      {"measurement": "% RCP 0-d", "setting": "[1]; 0 d", "result": 100, "unit": "%"},
      {"measurement": "% RCP 1-d", "setting": "[1]; 1 d", "result": 100, "unit": "%"},
      {"measurement": "% RCP 2-d", "setting": "[1]; 2 d", "result": 100, "unit": "%"},
      {"measurement": "% RCP 5-d", "setting": "[1]; 5 d", "result": 100, "unit": "%"},
      {"measurement": "% RCP 0-d", "setting": "[2]; 50 mCi level, 0 d", "result": 97.6, "unit": "%"},
      {"measurement": "% RCP 1-d", "setting": "[2]; 1 d", "result": 98.2, "unit": "%"},
      {"measurement": "% RCP 2-d", "setting": "[2]; 2 d", "result": 97.5, "unit": "%"},
      {"measurement": "% RCP 3-d", "setting": "[2]; 3 d", "result": 97.8, "unit": "%"},
      {"measurement": "% RCP 5-d", "setting": "[2]; 5 d", "result": 99.4, "unit": "%"},
      {"measurement": "% RCP 0-d", "setting": "[3]; L-cysteine 1.0 mg/mL", "result": 100, "unit": "%"},
      {"measurement": "% RCP 1-d", "setting": "[3]; L-cysteine 1.0 mg/mL", "result": 99.9, "unit": "%"},
      {"measurement": "% RCP 2-d", "setting": "[3]; L-cysteine 1.0 mg/mL", "result": 98.4, "unit": "%"},
      {"measurement": "% RCP 3-d", "setting": "[3]; L-cysteine 1.0 mg/mL", "result": 97.5, "unit": "%"},
      {"measurement": "% RCP 5-d", "setting": "[3]; L-cysteine 1.0 mg/mL", "result": 96.9, "unit": "%"},
      {"measurement": "% RCP 0-d", "setting": "[3]; L-cysteine 1.75 mg/mL", "result": 100, "unit": "%"},
      {"measurement": "% RCP 1-d", "setting": "[3]; L-cysteine 1.75 mg/mL", "result": 99.9, "unit": "%"},
      {"measurement": "% RCP 2-d", "setting": "[3]; L-cysteine 1.75 mg/mL", "result": 98.9, "unit": "%"},
      {"measurement": "% RCP 3-d", "setting": "[3]; L-cysteine 1.75 mg/mL", "result": 95.8, "unit": "%"},
      {"measurement": "% RCP 5-d", "setting": "[3]; L-cysteine 1.75 mg/mL", "result": 93.3, "unit": "%"},
      {"measurement": "% RCP 0-d (first value of cell)", "setting": "[4]; 0 d", "result": "100/100%"},
      {"measurement": "% RCP 0-d (second value of cell)", "setting": "[4]; 0 d", "result": "100/100%"},
      {"measurement": "% RCP 1-d (first value of cell)", "setting": "[4]; 1 d", "result": 94.9, "unit": "%"},
      {"measurement": "% RCP 1-d (second value of cell)", "setting": "[4]; 1 d", "result": 99.2, "unit": "%"},
      {"measurement": "% RCP 2-d (first value of cell)", "setting": "[4]; 2 d", "result": 93.6, "unit": "%"},
      {"measurement": "% RCP 2-d (second value of cell)", "setting": "[4]; 2 d", "result": 97.3, "unit": "%"},
      {"measurement": "% RCP 3-d (second value of cell)", "setting": "[4]; 3 d", "result": "ND/95.1%"},
      {"measurement": "% RCP 5-d (first value of cell)", "setting": "[4]; 5 d", "result": 90.4, "unit": "%"},
      {"measurement": "% RCP 5-d (second value of cell)", "setting": "[4]; 5 d", "result": 92.9, "unit": "%"},
      {"measurement": "RCP (effective radiostabilization)", "setting": "[5]", "result": "> 95", "unit": "%"},
      {"measurement": "RCP for 5 days", "setting": "[6]", "result": "> 95", "unit": "%"}
    ]}
  ]
}
